The record followed here is paper PMC7954794, “Protein context shapes the specificity of SH3 domain-mediated interactions in vivo” (Nature Communications, 2021).

In experiment [1] the test system is 575 putative partners (preys) of 22 WT SH3-containing proteins. The experiment in a line: DHFR-PCA on solid medium, WT and SH3-deleted baits (Fig. 1B). The experiment is classed as cell-based, Saccharomyces cerevisiae. More on the design: key to Score: 0: SH3-independent; 1: SH3-dependent PPIs; 2: SH3-inhibited PPIs. The note with it: for medrep (log2 median colony size normalized to plate background, PCA score): label = prey; for Ratio (SH3-deleted/WT medrep): only significant differences shown, PPIs completely lost have a ratio of 0.1, gained PPIs 2.5. An excerpt: To assess the requirement of SH3 domains for PPIs in vivo, we first measured binary interactions between 22 WT SH3-containing proteins (Supplementary Fig. 1A) as baits and 575 putative partners from their interconnected signaling networks using the dihydrofolate reductase protein–fragment complementation assay (DHFR-PCA) in the budding yeast Saccharomyces cerevisiae. About 33% (202/607) of the PPIs detected were described before, mostly by direct methods (Supplementary Fig. 1B, C)[11]. We repeated the experiments with baits in which the SH3s were individually replaced with a flexible linker by genome editing (SH3 domain deletion/stuffing, Fig. 1A). The stuffer DNA sequence ([…]) codes for a small flexible poly-Gly with Ser peptide ([…]) that is inspired by previous experiments[12],[13]. About a third of the SH3-containing protein interactome is qualitatively or quantitatively SH3-dependent (171 PPIs out of 607, Fig. 1B and Supplementary Fig. 1B, C). We validated the vast majority of the quantitative changes in low-throughput experiments and excluded that this is simply due to changes in protein abundance in most cases (Supplementary Fig. 1D–G). SH3-binding motifs[14] are more frequent in the SH3-dependent PPI partners when compared to sequences from random proteins, SH3-independent PPI partners or PPI partners that are stronger or gained following SH3 deletions (p values = 1.5 × 10^−17, 0.0038 and 2.1 × 10^−08, respectively; Mann–Whitney test, one-tailed, Fig. 1C). The changes we measure are therefore enriched for PPIs that depend on the direct interactions of the domains with the PPI partners.
The complete list of strains, primers, and gRNAs used in this study can be found in Supplementary Tables 1–3. All constructed yeast strains were validated by polymerase chain reaction (PCR) and confirmed by Sanger sequencing of the locus of interest. Bait strains for the DHFR-PCA experiments were constructed as follows. The genes of interest were fused at their genomic 3′ end by replacing the stop codon with a linker ([…]), the DHFR F[1,2] followed by a smaller linker (GGGGS), a 1× FLAG tag ([…]) and the NATMX4 resistance cassette via homologous recombination (all amplified from pAG25-DHFR[1,2]-linker-FLAG). The set of 615 prey strains (DHFR F[3] fusions in the BY4742 background) were retrieved from the Yeast Protein Interactome Collection[43] with the exception of 73 that were reconstructed (Supplementary Tables 1 and 2). Knockout strains were taken from the yeast knockout collection except for ABP1, BEM1, BZZ1, and SLA1, which were reconstructed by replacing the ORFs with the NATMX4 resistance cassette by homologous recombination in the BY4741 background.
Yeast SH3 domain genomic sequences were replaced by CRISPR–Cas9 genome editing. Each SH3 domain (as defined by the SMART database V8.0 except for Ysc84 SH3 (as defined by PROSITE), see Source Data for all SH3 sequences and Supplementary Table 1 for primers used) was specifically targeted by one gRNA[46]. Yeast competent cells were co-transformed with a pCAS plasmid (Addgene plasmid 60847[47]) expressing both the gRNA of interest and Streptococcus pyogenes Cas9[46] and a donor DNA sequence (stuffer) with 60 bp homology arms surrounding the SH3 DNA sequence. The Stuffer DNA was either PCR amplified or digested from a plasmid. The stuffer DNA sequence ([…]) codes for a small flexible linker ([…]) inspired by protein linkers used in structural biology[12],[13]. This type of linker is frequently used for fusing proteins without affecting the structure of the linked proteins.
The overall DHFR-PCA pipeline is based on Tarassov et al.[43] and the procedures have also been published as a visualized protocol. The screens were performed with robotically manipulated pin tools (BM5-SC1, S&P Robotics Inc.). First, the preys were cherry-picked from 96-well plates to omnitrays in a 384 format on YPD + HPH solid media. […]

For a further experiment, the system named is ABP1. The experiment is described as follows: DHFR-PCA on solid medium, bait ABP1 (Fig. 1B). The experiment is classed as cell-based, Saccharomyces cerevisiae. The following applies: bait ABP1, label = prey; 2-4 replicates. The text has this: Supplement 41467_2021_21873_MOESM8_ESM.xlsx, sheet "Fig1B" | column: medsize; medrep; Ratio; Score
Setting [2] is: bait SLA1-2, DHFR-PCA, Replicates 4 (2 for YCR009C, YDR388W).
The mark [3] stands for this setting: bait SLA1-3, DHFR-PCA, Replicates 4 (2 for YCR009C, YDR388W, YIL033C).

B1: YLR206W (protein, UniProt Q05785 1-613, looked up)
Epsin-2: MSKQFVRSAKNMMKGYSSTQVLVRDATANDSRTPSIDTLDDLAQRSYDSVDFFEIMDMLDKRLNDKGKYWRHVAKSLTVLDYLVRFGSENCVLWCRENFYVIKTLREFRHENESGFDEGQIIRVKAKELVSLLNDEERLREERSMNTRNRRANRAARPRPRRQRTRSNPHDSSPSYQDDLEKALEESRITAQEDEQRRRELAQYDDEDPDFQAALQLSKEEEELKQLQELQRLQKQQQSLSQFQAPLQQQQPQQQPAYYDIFGNPISQDEYLQYQYQQDQEQAMAQQRWLDQQQEQQQLAEQQYFQQQQQAAAAASALQQQQTAANMQQQQQQPADFQQPLPTGSNNPFSMDNLERQKQEQQHAQLQRQQEEARQQQEQLKLQQLQRQQQEEAQLHQKRQEEAQLQQQQAQLLQQQAQFQQQQPLKQTRTGNQSISDKYSDLNTLLATGTGIDTFGNTGEARIPAQHTKTGTFINSQGTGYKQVTNEPKNNPFLSNQYTGLPSTNIVPTQTGYGFGNQPQSPPTNSPQQNPTGISYSQPQQQQQPQQQPQYMQNFQQQQPQYAQNFQQQPQYTQNYQQQPQYIQPHQQQQQQQQQQQQQQGYTPDQGVSLIDL
As to B1, the entries for the “medrep (log2 median colony size normalized to plate background, PCA score)” value (in experiment [1] (setting [2]); in experiment [1] (setting [3]); in the experiment with ABP1) were 2.135, 2.135 and 2.696, respectively. Besides, the Score in experiment [1] (bait SLA1-2, label = prey) came out at 1; in experiment [1] (bait SLA1-3, label = prey), 0. Besides, in experiment [1] (bait SLA1-2, label = prey), the “Ratio (SH3-deleted/WT medrep)” value amounted to 0.1.

B2: YJL201W (protein, UniProt P32525 1-599, looked up)
Protein ECM25: MIDINVNNIFFRSYSVDPNSGHAIYVFDSTYLPASDEIGDKQVYDLLINALMDRLVMKLPQAPYSLVIFSSGFSQRKISWVYGIKMFAKLPKETKFYLQKIFIVHESFFVRSVYQVISNAMNFNFLDSKDSQHDFPSLVHVLDLTSLSELIDITRLRISLNVYLYDYQIREHINVPEEYYNRLTPLAIRQYRQLVFDKIFKKLQNDALLCELIFQKPGNYKKVNIFLDIIKRNNYIDLSQWDIYSLASVWLNYFIKNKAKPLIPIELIPLPIVDDLKFTSETFRKIIKFNQYQDLFMVIIPFFNRIIAHGESTKHDSRTLSKALTPALCKEKLSMMTNDRLAIGSRYIKNLLDFFPEIAKEISSPPSSVSSSSTIPVLPKPRKSSPTRYSELGCLTLPRSRSPSPQRSVTSPTYTPVALQNTPVLKPKSSSRNVSSPSFNAKPPLPIKAVTRPQLSLTSNSNTDLALASSSTDTLSSPTKTPSADSLPLSNSSTDLTISDNIKEMVKDEPAKDKNSVETDIFVQQFESLTLVQNAKIKKFDKELQEKKKKNETTSKTADKFSQKGYSDIKASNKVSRLAALYEERLQGLQVMNEMKQRW
Regarding B2, the “medrep (log2 median colony size normalized to plate background, PCA score)” value in experiment [1] (setting [2]) was 1.384; in experiment [1] (setting [3]), 1.384; in the experiment with ABP1 it was 3.816. Also, the Score is given as 1 in experiment [1] (bait SLA1-2, label = prey) and 0 in experiment [1] (bait SLA1-3, label = prey). Moreover, the “Ratio (SH3-deleted/WT medrep)” value in experiment [1] (bait SLA1-2, label = prey) worked out at 0.1.

B3: YGR037C (protein, UniProt P31787 1-87, looked up)
Acyl-CoA-binding protein: MVSQLFEEKAKAVNELPTKPSTDELLELYALYKQATVGDNDKEKPGIFNMKDRYKWEAWENLKGKSQEDAEKEYIALVDQLIAKYSS
Regarding B3, the “medrep (log2 median colony size normalized to plate background, PCA score)” value turned out to be 1.385 in experiment [1] (setting [2]), 1.385 in experiment [1] (setting [3]) and 3.115 in the experiment on ABP1. For the same molecule, the Score in experiment [1] (bait SLA1-2, label = prey) is 1; in experiment [1] (bait SLA1-3, label = prey), 1. Also, the “Ratio (SH3-deleted/WT medrep)” value in experiment [1] (bait SLA1-2, label = prey) is given as 0.1; in experiment [1] (bait SLA1-3, label = prey), 0.1.

B4: YKR001C (protein, UniProt P21576 1-704, looked up)
Vacuolar protein …: MDEHLISTINKLQDALAPLGGGSQSPIDLPQITVVGSQSSGKSSVLENIVGRDFLPRGTGIVTRRPLVLQLINRRPKKSEHAKVNQTANELIDLNINDDDKKKDESGKHQNEGQSEDNKEEWGEFLHLPGKKFYNFDEIRKEIVKETDKVTGANSGISSVPINLRIYSPHVLTLTLVDLPGLTKVPVGDQPPDIERQIKDMLLKYISKPNAIILSVNAANTDLANSDGLKLAREVDPEGTRTIGVLTKVDLMDQGTDVIDILAGRVIPLRYGYIPVINRGQKDIEHKKTIREALENERKFFENHPSYSSKAHYCGTPYLAKKLNSILLHHIRQTLPEIKAKIEATLKKYQNELINLGPETMDSASSVVLSMITDFSNEYAGILDGEAKELSSQELSGGARISYVFHETFKNGVDSLDPFDQIKDSDIRTIMYNSSGSAPSLFVGTEAFEVLVKQQIRRFEEPSLRLVTLVFDELVRMLKQIISQPKYSRYPALREAISNQFIQFLKDATIPTNEFVVDIIKAEQTYINTAHPDLLKGSQAMVMVEEKLHPRQVAVDPKTGKPLPTQPSSSKAPVMEEKSGFFGGFFSTKNKKKLAALESPPPVLKATGQMTERETMETEVIKLLISSYFSIVKRTIADIIPKALMLKLIVKSKTDIQKVLLEKLYGKQDIEELTKENDITIQRRKECKKMVEILRNASQIVSSV
Consider B4, for which the results for the “medrep (log2 median colony size normalized to plate background, PCA score)” value (in experiment [1] (setting [2]); in experiment [1] (setting [3]); in the experiment with ABP1) were 1.835, 1.835 and 2.787, respectively. Further, the Score in experiment [1] (bait SLA1-2, label = prey) is listed as 1; in experiment [1] (bait SLA1-3, label = prey), 0. Moreover, the “Ratio (SH3-deleted/WT medrep)” value in experiment [1] (bait SLA1-2, label = prey) was found to be 0.1.

B5: YIL095W (protein, UniProt P40494 1-810, looked up)
Actin-regulating kinase PRK1: MNTPQISLYEPGTILTVGSHHAKIIKYLTSGGFAQVYTAEISPPDPYSNANIACLKRVIVPHKQGLNTLRAEVDAMKLLRNNKHVVSYIDSHAARSVNGIAYEVFVLMEFCERGGLIDFMNTRLQNRLQESEILEIMSQTVQGITAMHALQPPLIHRDIKIENVLISHDGLYKVCDFGSVSGVIRPPRNTQEFNYVQHDILTNTTAQYRSPEMIDLYRGLPIDEKSDIWALGVFLYKICYYTTPFEKSGEAGILHARYQYPSFPQYSDRLKNLIRLMLMEAPSQRPNICQVLEEVSRLQNKPCPIRNFYLLRAMNQNANTQLAGEPSSTTYVPTQKFIPVQSLQSINQPPNMMPVTHVSTTPNLGTFPISINDNNKTEVTAHAGLQVGSHSNLTSPLMKTKSVPLSDEFASLYYKELHPFQKSQTFKSVESFQSPQRKSMPPLSLTPVNNDIFDRVSAINRPNNYVDSETQTIDNMAVPNLKLSPTITSKSLSSTKEIAAPDNINGSKIVRSLSSKLKKVITGESRGNSPIKSRQNTGDSIRSAFGKLRHGFTGNSVNNSRSASFDNNNVNGNGNNTNRRLVSSSTSSFPKFNSDTKRKEESDKNQRLEKRRSMPPSILSDFDQHERNNSRTGSRDYYRSHSPVKKTQASAKTTSKPTLIPDNGNVNINQEKKESIQRRVHNLLKSSDDPVTYKSASGYGKYTDIGTETSNRHSSVRITPITEEKFKKTLKDGVLDIKTKSNGKDKSRPPRPPPKPLHLRTEIQKIRNFSRLQSKKLPIERISSEATETIVDVNVDDLEADFRKRFPSKV
Regarding B5, the figures for the “medrep (log2 median colony size normalized to plate background, PCA score)” value (in experiment [1] (setting [2]); in experiment [1] (setting [3]); in the experiment on ABP1) were 1.8519, 1.8519 and 4.25, respectively. Also, the Score was 1 in experiment [1] (bait SLA1-2, label = prey) and 0 in experiment [1] (bait SLA1-3, label = prey). Further, the “Ratio (SH3-deleted/WT medrep)” value in experiment [1] (bait SLA1-2, label = prey) is reported as 0.1.
